Molecular target: T1, human LAG3 (Lymphocyte Activation Gene-3) expressed on cells (human, UniProt P18627 23-525)
T1 sequence: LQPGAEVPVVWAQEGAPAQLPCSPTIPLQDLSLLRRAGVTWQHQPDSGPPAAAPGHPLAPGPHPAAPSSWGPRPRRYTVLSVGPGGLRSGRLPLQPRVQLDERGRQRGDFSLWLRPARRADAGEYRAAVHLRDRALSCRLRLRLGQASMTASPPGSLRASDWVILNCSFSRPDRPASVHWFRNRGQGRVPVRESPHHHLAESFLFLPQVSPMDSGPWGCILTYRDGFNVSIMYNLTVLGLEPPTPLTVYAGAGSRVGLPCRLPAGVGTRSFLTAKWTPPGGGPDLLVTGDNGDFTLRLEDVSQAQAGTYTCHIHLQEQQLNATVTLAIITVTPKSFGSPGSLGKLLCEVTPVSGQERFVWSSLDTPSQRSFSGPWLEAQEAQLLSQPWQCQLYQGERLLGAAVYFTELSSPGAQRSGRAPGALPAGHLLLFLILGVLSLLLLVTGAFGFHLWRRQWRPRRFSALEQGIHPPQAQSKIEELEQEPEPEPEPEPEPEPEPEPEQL
Test: cell-based or functional assay

B1: Ab6: humanized light chain 45AGX Humanized x[LAG3_H] mAb (LB145.22D2.E1.D1 (VL3)) Kappa (PX) and humanized heavy chain 73AHD Humanized x[LAG3_H] mAb … (antibody)
heavy: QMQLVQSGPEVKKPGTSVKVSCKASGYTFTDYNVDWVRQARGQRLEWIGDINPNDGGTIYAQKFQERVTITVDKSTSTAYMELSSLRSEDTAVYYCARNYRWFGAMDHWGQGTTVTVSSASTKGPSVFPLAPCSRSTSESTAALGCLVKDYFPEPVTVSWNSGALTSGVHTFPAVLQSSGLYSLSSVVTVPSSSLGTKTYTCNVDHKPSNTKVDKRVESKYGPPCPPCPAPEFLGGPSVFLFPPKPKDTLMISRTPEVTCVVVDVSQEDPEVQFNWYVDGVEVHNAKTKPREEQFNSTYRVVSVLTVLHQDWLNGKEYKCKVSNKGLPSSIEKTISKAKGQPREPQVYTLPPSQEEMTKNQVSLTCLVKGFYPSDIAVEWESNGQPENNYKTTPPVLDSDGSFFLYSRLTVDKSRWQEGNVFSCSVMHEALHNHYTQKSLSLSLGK
light: DIVMTQTPLSLSVTPGQPASISCKASQSLDYEGDSDMNWYLQKPGQPPQLLIYGASNLESGVPDRFSGSGSGTDFTLKISRVEAEDVGVYYCQQSTEDPRTFGGGTKVEIKRTVAAPSVFIFPPSDEQLKSGTASVVCLLNNFYPREAKVQWKVDNALQSGNSQESVTEQDSKDSTYSLSSTLTLSKADYEKHKVYACEVTHQGLSSPVTKSFNRGEC
notes: Humanized 22D2 N55D, IgG4 S228P/kappa; also called Hu22D2 VH6/VL3 N55D (Ab 6); hu22D2 VH6/VL3 N55D
IL-2 production by SEB-stimulated PBMC in combination with anti-PD1, fold over anti-PD-1 alone plus isotype control: 1.45 fold
IL-2 production by SEB-stimulated PBMC, fold over isotype control: 1.54 fold
